Values quoted from earlier work as cited in publication PMC4005919.
pKd: −log10 of the molar value.

Target: BID BH3 (Homo sapiens) (UniProt P55957)
Sequence (P55957 80-99): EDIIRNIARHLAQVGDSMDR

Sequence of BAK (Q16611 2-211): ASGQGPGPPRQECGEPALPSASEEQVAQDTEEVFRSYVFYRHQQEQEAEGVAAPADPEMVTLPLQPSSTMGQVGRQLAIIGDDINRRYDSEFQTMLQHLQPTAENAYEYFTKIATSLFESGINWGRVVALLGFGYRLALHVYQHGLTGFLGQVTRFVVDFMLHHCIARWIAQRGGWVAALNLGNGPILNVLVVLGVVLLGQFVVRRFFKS

Substance: BAK (from UniProt Q16611)
- pKd: 5.00
